Experimental data taken from paper PMC3093405, “A Motif Unique to the Human Dead-Box Protein DDX3 Is Important for Nucleic Acid Binding, ATP Hydrolysis, RNA/DNA Unwinding and HIV-1 Replication”.

Molecular target: DDX3wt (Homo sapiens, UniProt O00571 1-662)
Assay: EMSA; no ATP; EMSA: on ice, protein buffer 25 mM Tris-HCl pH 7.5, 0.5 mM DTT, 20% glycerol, 100 mM NaCl plus 5x binding buffer (10% glycerol, 5 mM MgCl2, 2.5 mM EDTA pH 8, 50 mM NaCl, 50 mM Tris-HCl pH 7.5, 10 mM DTT), 0.05 pmol oligo. Filter binding: 10 mM Hepes pH 7.2, 100 mM KCl, 3 mM MgCl2, 5% glycerol, 1 mM DTT, 50 µg/ml salmon sperm DNA, 50 nM dsDNA, 24°C
Settings: protein: recombinant; tags: N-terminal ~3 kDa peptide with 6xHis; C-terminal KQGCFGG; label: 5' 6-FAM

Sequence of DDX3wt (O00571 whole entry): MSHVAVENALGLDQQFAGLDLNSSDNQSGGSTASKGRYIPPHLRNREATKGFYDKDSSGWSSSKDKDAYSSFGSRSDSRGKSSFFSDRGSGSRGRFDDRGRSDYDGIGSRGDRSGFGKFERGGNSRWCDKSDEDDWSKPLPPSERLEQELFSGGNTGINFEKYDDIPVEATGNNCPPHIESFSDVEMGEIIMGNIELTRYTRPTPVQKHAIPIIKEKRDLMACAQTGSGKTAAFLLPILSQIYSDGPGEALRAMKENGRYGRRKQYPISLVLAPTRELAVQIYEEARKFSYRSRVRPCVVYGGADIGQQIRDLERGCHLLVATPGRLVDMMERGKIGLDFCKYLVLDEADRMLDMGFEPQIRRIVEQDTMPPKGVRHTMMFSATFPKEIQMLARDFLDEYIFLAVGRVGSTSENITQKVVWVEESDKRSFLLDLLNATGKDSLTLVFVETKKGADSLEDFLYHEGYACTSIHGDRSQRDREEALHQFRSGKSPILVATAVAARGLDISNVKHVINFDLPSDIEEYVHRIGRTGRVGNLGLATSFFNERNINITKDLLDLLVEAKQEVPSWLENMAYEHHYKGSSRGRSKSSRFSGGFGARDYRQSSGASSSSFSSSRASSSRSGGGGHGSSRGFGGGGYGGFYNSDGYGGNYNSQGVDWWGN

Binder | binding result
CTCAACTCAACCCTTCAT (ssDNA) [ssDNA (6-FAM d18mer)] | binds
CCCAAGAACCCAAGGAAC (ssRNA) [ssRNA (6-FAM r18mer)] | binds
